According to the DeepSol protein solubility set:

test: soluble on expression in E. coli; label from the status in PepcDB or PDB records

| Sequence | soluble on expression in E. coli |
| --- | --- |
| MGSDKIHHHHHHMPEKLDTVLGYLKEFPDYYKYVTKKTYTVNEKIIFEDEKAKSIFFIVEGYAAVELEDNLRKTNYISIFVLPYNVLGIDAFSSYPKKKHSITVMSEHLMLYKIDADFLLNILSIKPDVNDFLLTSIADVFARHYALLGMIAKTPKERIYMALENLAVEMGTEDEERNEIVLPNFINQSVLARYCRTTQPNISNLLTELVEEEFLVNKKSPYRIDKDSLDI | not soluble |
| MAILRLEPQQLYSVADLENMPCKSTKELPPIDEIVGQERAQKAVEFAMSIKEKGYNIYAIGQNGLGKRTMILRYLNRHQHDADALFDWCYVANFEDTRTPKVLKLPCGIGNKLRVDIEALMGKLLNALPLAFDNEMYFSRADRLKNQLANKQQNELDRISREAKEHGISLTITSQGDYQFVAMNGDELHTEESFDALSKKEQEQFSDSIDALEVSLRSMVRELTEWEDTYSDKIKKLNDEVTLDVITHFIKKLKVDYSEYSEIKTYLTELQKDIVENADIFLDQSGEQGEIAAASLDKKLPRRYKVNVLVSRNNSDFPIVVEENPNYHSLFGSIETATFKGTVFTDFSLIRAGSLHKANGGVLLMDAQKVLEQPYVWDGLKRALRARQLSFTSLEKEVTLTGAVSLDPEPIPLDIKIILFGDYRTYQLLQHYDPEFSELFRVTADFEDEMKRTPESELHYARFISSVVHDNNMLHCDRKAIARIIEYSSRLSGDQSKLSLHSANIANLLRESNYVARQANSNMIRIGHVEEAMKNQEMRVSRLRDSVMETFLNGTT | not soluble |
| MRLWVLTLVQAHFAILAVADTTVAVEETTKAANETTTPDGPHADCFLCAPTVQCGETVEGDYSSGEVNVLLMKPMEDNDYFIVKGEVFPNAMKIFIDIYKDLSVGKAQEGGNNQPRLLTFEHYFDTNLTFSRSNLHGEGVPDSFREATLPDAIKQKKPWTLMFKMKDGLSAFETGDETGWFNNDIPWNGTATTQSFNIRGGWKTTSIQ | not soluble |
| MSTVIKGGTIVTADLTYKADVKVEGGRIVEIGPNLSGAETLDATGCYVMPGGIDPHTHLEMPFMGTYSSDDFESGTRAALAGGTTMVVDFALPSPGQSLLEALTMWDNKSTRANCDYSFHMAITWWGEQVFNEMETIVKDKGINTFKHFMAYKGALMVDDDEMFSSFQRCAALGALPLVHAENGDVVAQLQAKLLAEGNSGPEAHAYSRPAEVEGEAANRAIMIADMAGCPVYIVHTSCEQAHEAIRRARAKGMRVFGEPLIQHLTLDETEYFDKDWDHAARRVMSPPFRNKLHQDSLWAGLASGSLQVVATDHCAFTTEQKRFGVGDFTRIPNGTGGLEDRMPMLWTYGVATGRITMNEFVAVTSTNIAKILNIYPKKGAILVGADADLVVWDPKRSKTISAKTQQSAIDYNVFEGKTVTGLPRFTLTRGVVSIEEGTVKTQEGHGEFVRRDPFPAVSTALSTWKEVTAPRAVQRSGIPASGVHHHHHH | soluble |
| MKGVIMIIDGMADRPLEKLSGRTPLEAASTPNMDRIAESGINGIMDPIKPGVRAGSDTSHLSILGYDPYRVYTGRGPFEAAGVGLDVKPGDIAFRCNFATADEDMIITDRRAGRIRSGTSSIARTINSMTIEGFEDVEIIFRESTGHRAVLVLRGPGLGDKVSDADPKVEGKPPKKIKALDGSPESRKTAEVLNRIVKESYEILRDHPVNTGRIERGEAPANIILPRGAGAVPHVEKFQERYDLKAACIAETGLIKGIGHLTGMDVIDVEGATGGIDTDLESIKNAISSAIAADYDFLLINIDGADEAGHDGDLEGKVRFIERVDSILGDLMGDDIYFILTADHSTPVSVMDHTGDPVPIAITGPEVRVDDVTSFSERAAAAGGLCRIRGSDVMDILLDLMNKKEKFGALEHHHHHH | not soluble |
| MAHHHHHHMAKTVDNAALLAEIDQLRRLIAEKEALITPDGGSLSKKSKKKSQMNMVETEPVQGCRDFPPETMRLRKYLFDVFHSTARKFGFEEYDSPVLESEELYIRKAGEEITEQMFNFITKGGHRVALRPEMTPSLARQLLAKGRSLLLPAKWYSIPQCWRYEAITRGRRREHYQWNMDIIGVKSVSSEVELVCAACTAMQSLGLSSKDVGVKINSRKILQTVVEQAGVSADKFAPVCVIVDKMEKLPREEVVAQLAAIGLESNVVDAITSTLSLKTIDEIAQRIGEEHEAVRELRDFITQIEAYGFGDWVIFDASVVRGLAYYTGIVFEGFDRDGNFRALCGGGRYDNLLTTYGSPTAVPCVGFGFGDCVIVELLNEKKLLPELHHVVDDLVIPFDETMRPHALSILRRLRDAGRSADIVFDKKKVVQAFNYADRIGALRAVLVAPDEWARGEVRVKMLREGAGREEGANERGIVLPVDKIV | not soluble |
| MPEFVQYVGGHFEEVGKEFMQYFIEIGNLKSNETVLDVGCGIGRMAVPLMNYLSDDGTYYGFDLFNKGITWCKNNISTRRNNFHFEHVDIYNQFYNPDGKEDASQYKFPYEDESFDFIFLTSVFTHLLPKELEHYVREIARVLKKDGRCFITFFLINPESSYYLNAGLSPLGFYHQIDNCYVLNKDIPNFAVAYPEEDIRTLLNKYGLEMQTPPHYGSWCGRTEHTSYQDIILAQKLEHHHHHH | soluble |
| SSVIDKPQVNESAFHRAEPEERESQPETTPQYSPQSVSTTVPERVYQAIDKTPTYPGRTDYEIKPRDRAPSDSSVREARIADSFKRTDWIESKLAPKPNVGKERHAEPAPSKREVHAYHELLKTPDFESQQAEQPTSIESVREVSLPQVTALGKALVVVDEQFVLMSSDSGVALVSLPRSEFYRTKGQLTPSEGALKAQPLLVPLSMKLDTDLVRLAQDYQQDFAQLGIQLKARNDKALMVMGVPAPLRQQNLQNLVPDLLSYAQTWMKGEKASTQMLPALIDWLAVQVTTVKSHYTLSEAIQIIAELEQLRHGQLPLDDKTFVSAVDFSATIAKLKP | not soluble |
| AHHHHHHGSAGVRLVGVWKQFGSFTAVKDLTLEVRDGEFLVLLGPSGCGKTTTLRMIAGLEEPTKGQIYIGDKLVADPEKGVFVPPKDRDIAMVFQSYALYPHMTVYENIAFPLKLRKVPKQEIDKRVREVAEMLGLTELLNRKPRELSGGQRQRVALGRAIVRRPQVFLMDEPLSNLDAKLRVKMRAELKKLQKQLGVTTIYVTHDQVEAMTMGDRIAVMNQGVLQQVGTPEEVYEKPANTFVAGFIGSPPMNFLDATITEDGFLDFGEFRLKLLPDQFEVLQDYVGKEVIFGIRPEDIYDALFAQVKIPGENMARGVVDIIENLGGEKIVHISIGGLIVTAKFPGESRVKEGDEIDIVFDMKKIHIFNKKTGKAIL | soluble |
| MAHHHHHHMSRLVMTAPPSLPPFLLLSGASSPPPPPISHTHTHTHTHTHTAMASLAHLSTPLPSEPSAAAPPPAASAPAGALHLERFLESVLKQNLDTVLSQRDELYATVAQCAQLRWLMDDMQALSRYHSFIEASTAAETAAAVPLSALSPVASGSPNASLPLMSKRAQADAYKPPQKNKVLVDLGNHFYTQGVVKDAGVLFMNMGCGVVLPMSLDEAREFLRKKEAVVRRMIMNKSKEALRIKYRIRLVTEAIARLHERHLGL | not soluble |
| MGSDKIHHHHHHMTKFIVDSSYWNLFPTSKIGVILIKDYHMDRNLETELKQLLSDSHSLAKKYLQEKEFSQNRVIQTYRKAYQTFKTKKGARSSIEALLKRVNSGNEITSINPLVDIYNAASLRFGLPIGAEDSDTFRGDLKLTITNGGDEFYLIGEDFNRPTLSGELAYVDDVGAVCRCFNWRDGKRTMITDNTQNAFLVIELIDNGREIIFKEALDFIATNTNRFLKAKTQTIILDKEHSEITL | not soluble |
| SHRRFRRHWLVSPSIWWHNRRILDFMPSENRLNGIDVCLNIGALERGSDCKRREERDMAGQAEQMAAELDRHGAAVFFREYPNADHGNVPFYSLTDCVEYLRKAWQR | not soluble |
| MGSDKIHHHHHHMPIYVYWGEDDFAIAKAVTTLRDRVLDPLWTSFNYTSFPPEDSEAPIQALNQVMTPVFGAGGRLVWLMNTNLLQNCPENVLAELTRTLSVIPENSFLLLTCRNKPDERLKSTKLLKQSATEFREFPLIPPWKTELLIQAVNQAAQTVGVKLTPKSAELLAEAVGNDTRLLYNEMEKLRLYAEDNNRPIEENTVTRLVRNTTQNSLQLAAAIRVGDTAKALTILADLINAAEPELRIIATLIGQFRTWLWVKLMVESGERNPQAIAQAAEIGNPKRIYFLQQEVQSLSLRQLISCLPLLLELEVTVKQGRAEISILQIKIIELCQLCQRI | not soluble |
| MSEFDFDVVVVGAGAVGLACGYALSRRGLVVAVLEEQGRIGEGVSSRNSEVIHGGLYYPTGSLKAKLCVQGRRALYAFCDAHKVPYKKCGKLVVATSEDEIARLDTIWEQALANDVEGMERLTGAQARALEPGLNAHAALLSPESGVFASHDYMLALQGEIEAAGGAVVLSTPFEGAEPLAGGGFRVRAGGAEPTDLTCRLLVTAPGLSSQAVAGRIEGYPAEQIPKAHFGKGIYFRLSGKAPFQRLIYPPPIHGALGTHYRNDMGGQAVFGPDLEYVAAPDYSVDPAKADAFAAYIRKFWPDLPADRLVPDYAGVRPKLHGPGEPQPDFQLRGVEDHGLAGLMALFGIESPGLTSSLAIGETVAERLCGASLEHHHHHH | soluble |
| MAQVAIITASDSGIGKECALLLAQQGFDIGITWHSDEEGAKDTAREVVSHGVRAEIVQLDLGNLPEGALALEKLIQRLGRIDVLVNNAGAMTKAPFLDMAFDEWRKIFTVDVDGAFLCSQIAARQMVKQGQGGRIINITSVHEHTPLPDASAYTAAKHALGGLTKAMALELVRHKILVNAVAPGAIATPMNGMDDSDVKPDAEPSIPLRRFGATHEIASLVVWLCSEGANYTTGQSLIVDGGFMLANPQFNPE | soluble |
| MGSDKIHHHHHHMLGRSANGIFWLFRYLERAENSARAIEAGFRLALTRDASDASDEWRSLIVTLGLQNAYEAKYGPGFTGPHVFNFILRDRENPGSVLAMMEMARTNARMVRAGITREVWESVNDGWMKLREALARPVTETRLGDVLDLVRRQSTQVRGAIEGTMLRNEIYNFARLGSFIERADNTARILDVKYYVLLPSVSYVGSSLDNVQWENVLRSLAGERAYRWLNAGRMDPRGIAEFLILDERFPRSLAFCYSKLRSNLASLAREYGGEMHSHEILRDADTQLHTATIEAIFDQGLHEFIGKFIACNTALALQIQRDYRFTE | not soluble |
| MGSDKIHHHHHHMSETTGLQLRSLIKASGDLEVSLVPVSIPEPGPDEVVVRVEATPINPSDLGLLFGAADMSSAKASGTPDAPVITAKVPEAAMKAMAGRLDESMPVGNEGAGTVIKAGSSDAAQALLGKTVAMIGGAMYAQYRLIKAADCLKLQDGTTAAEGASCFVNPLTALGMTETMKREGHKALVHTAAASNLGQMLNRICLKDGIDLVNIVRSEAQAKLLREIGAKYVVDSTAPTFLDDLTEALVKTGATIAFDAIGGGRLAGQILGCMEAAIGKTATGPYSRYGSNVLKQVYIYGSLDTKPTEIVRNFGFAWAAGGWLLFPFLQKIGAADAAKLRARVAAEIKTTFASRYTKVVSLKEALTLDAIAIYNKRATGEKYLIDPTK | not soluble |
| DSTFTNISLADDIDHSSRILYPRPKSLLPKMMNADMDVDAENQVELEEKTRLINQVLELQHTLEDLSARVDAVKEENLKLKSENQVLGQYIENLMSASSVFQTTDTKSKRK | not soluble |
| MGSDKIHHHHHHSCGTNGSKTTSTDITEKKVIVQVPQFDADSAYKYIQAQVDFGPRTPNSKGHVACGDYLAAKLAEHGAKVISQNAELPAYDGTLLKARNIIGSFKPESKKRIALFAHWDTRPWADNDPNEKNHHTPILGANDGASGVGVLLEIARQINQQQPELGIDIIFLDAEDYGAPQFYTGEHREDQWCLGAQYWARTPHVDGYNARFGILLDMVGGKDATFFKEVYSEKYAKGINKKVWKKANDAGYGRYFINEVGGQITDDHLFINRLAGIPTIDIIPNDENCELSSFGPTWHTVNDNMDAIDRSTLKAVGQTVLEVIYNEK | not soluble |
